Key:
[1] = target: T1, PCSK9-V5 (full-length human PCSK9 with C-terminal V5 tag) (human, UniProt Q8NBP7 31-692); assay: poly-histidine pull-down, AnxA1-(His)6 on cobalt chelate beads, PCSK9-V5 medium
T1 construct: Used as conditioned medium of CHO-K1 cells (Far Western, pull-down) or co-expressed in cells (co-IP); The background says PCSK9 is secreted as a prosegment-PCSK9 heterodimer; also called full-length (FL) PCSK9-V5; native PCSK9; not shown: C-terminal V5 tag
Experimental: (§1) FIG. 4. Characterization of the interaction of PCSK9 with AnxA2. (A) PCSK9-V5 Far Western blot of lysates of COS-1 cells, wild type (WT) CHO-K1 cells, CHO-K1 cells overexpressing an empty vector (pIRES), AnxA1 or AnxA2. (B) Poly-histidine pull-down assay. Purified native AnxA2-(His)₆ or AnxA1-(His)₆ were immobilized on cobalt chelate beads and incubated with PCSK9-V5. […] PCSK9 (heavy arrow) and its furin-cleaved form (PCSK9-Δ218; light arrow) were pulled-down by AnxA2. (C) Co-immunoprecipitation experiments of CHO-K1 cells co-transfected with PCSK9-V5 and either AnxA1-HA, AnxA2-HA or with AnxA2-HA and p11. […] Expression of the transfected constructs was analyzed by Western blotting of cell lysates using the anti-V5-HRP or anti-HA-HRP antibodies. (D, left panel) PCSK9-V5 Far Western blots of purified AnxA2-(His)₆ in the absence or presence of reducing agents. Note that in non-reducing conditions, PCSK9-V5 binds both the dimer and monomer forms of AnxA2. (D, right panel) Western blots of the purified AnxA2-(His)₆ using the anti-AnxA2 mAb in non-reducing or reducing conditions. […]
20 μg of purified AnxA2-(His)₆ or AnxA1-(His)₆ or no proteins (for negative control) were immobilized onto a cobalt chelate resin (Thermo Scientific). […] Supernatants were analyzed by Western blot as described above using the anti-V5-HRP or anti-His-HRP antibodies.

[2] = target: T1, PCSK9-V5 (full-length human PCSK9 with …); assay: co-immunoprecipitation with anti-V5 from co-transfected CHO-K1 cells
Experimental: as §1, with “conditions. (E, upper panel) Media from CHO-K1 cells expressing PCSK9-V5 or the CHRD-V5 were separated by SDS-PAGE (8%), transferred onto nitrocellulose, incubated with purified AnxA2-(His)₆ and probed with the anti-His-HRP antibody.” for “conditions.”

binding result [1]	binding result [2]	Binder
no binding	–	purified AnxA1-(His)6 (other) MAMVSEFLKQAWFIENEEQEYVQTVKSSKGGPGSAVSPYPTFNPSSDVAALHKAIMVKGVDEATIIDILTKRNNAQRQQIKAAYLQETGKPLDETLKKALTGHLEEVVLALLKTPAQFDADELRAAMKGLGTDEDTLIEILASRTNKEIRDINRVYREELKRDLAKDITSDTSGDFRNALLSLAKGDRSEDFGVNEDLADSDARALYEAGERRKGTDVNVFNTILTTRSYPQLRRVFQKYTKYSKHDMNKVLDLELKGDIEKCLTAIVKCATSKPAFFAEKLHQAMKGVGTRHKALIRIMVSRSEIDMNDIKAFYQKMYGISLCQAILDETKGDYEKILVALCGGNHHHHHH
–	no binding	AnxA1-HA (human AnxA1 with C-terminal HA epitope) (other) MAMVSEFLKQAWFIENEEQEYVQTVKSSKGGPGSAVSPYPTFNPSSDVAALHKAIMVKGVDEATIIDILTKRNNAQRQQIKAAYLQETGKPLDETLKKALTGHLEEVVLALLKTPAQFDADELRAAMKGLGTDEDTLIEILASRTNKEIRDINRVYREELKRDLAKDITSDTSGDFRNALLSLAKGDRSEDFGVNEDLADSDARALYEAGERRKGTDVNVFNTILTTRSYPQLRRVFQKYTKYSKHDMNKVLDLELKGDIEKCLTAIVKCATSKPAFFAEKLHQAMKGVGTRHKALIRIMVSRSEIDMNDIKAFYQKMYGISLCQAILDETKGDYEKILVALCGGNYPYDVPDYA

— US20110118181A1 (INSTITUT DE RECHERHES CLINIQUES DE MONTREAL, published 2011)
